For this assay, the target named is Kelch domain of human Keap1 (residues 321-609) (human, UniProt Q14145 321-609). As to the kind of experiment: ITC. (In general: ITC needs no label: the signal is the heat of the interaction.)

The values below come from article PMC3725505 (Scientific Reports, 2013).

Ends that are not written are not given here.

Kelch domain of human Keap1 (residues 321-609), sequence (Q14145 321-609): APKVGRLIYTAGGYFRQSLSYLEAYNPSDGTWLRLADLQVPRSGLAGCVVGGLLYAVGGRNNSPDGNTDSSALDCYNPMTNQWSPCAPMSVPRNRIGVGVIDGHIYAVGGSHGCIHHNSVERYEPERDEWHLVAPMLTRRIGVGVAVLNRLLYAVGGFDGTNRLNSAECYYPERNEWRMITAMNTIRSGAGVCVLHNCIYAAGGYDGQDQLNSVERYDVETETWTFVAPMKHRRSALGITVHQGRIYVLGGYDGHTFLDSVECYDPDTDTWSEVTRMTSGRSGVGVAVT

B1: WTX pS286 peptide (20-mer, S286 phosphorylated) (peptide)
chain: SLEEPHSPETGEKVVAGEVN
modifications: also: phosphoserine (S286), position in chain not placed
Regarding B1, the dH is -10.8 ± 0.14 kcal/mol.
